Measured values from IntAct's records for PubMed 26385923.

B1: Mitochondrial antiviral-signaling protein (Homo sapiens), Q7Z434 (parent)
chain: MPFAEDKTYKYICRNFSNFCNVDVVEILPYLPCLTARDQDRLRATCTLSGNRDTLWHLFNTLQRRPGWVEYFIAALRGCELVDLADEVASVYQSYQPRTSDRPPDPLEPPSLPAERPGPPTPAAAHSIPYNSCREKEPSYPMPVQETQAPESPGENSEQALQTLSPRAIPRNPDGGPLESSSDLAALSPLTSSGHQEQDTELGSTHTAGATSSLTPSRGPVSPSVSFQPLARSTPRASRLPGPTGSVVSTGTSFSSSSPGLASAGAAEGKQGAESDQAEPIICSSGAEAPANSLPSKVPTTLMPVNTVALKVPANPASVSTVPSKLPTSSKPPGAVPSNALTNPAPSKLPINSTRAGMVPSKVPTSMVLTKVSASTVPTDGSSRNEETPAAPTPAGATGGSSAWLDSSSENRGLGSELSKPGVLASQVDSPFSGCFEDLAISASTSLGMGPCHGPEENEYKSEGTFGIHVAENPSIQLLEGNPGPPADPDGGPRPQADRKFQEREVPCHRPSPGALWLQVAVTGVLVVTLLVVLYRRRLH
partner: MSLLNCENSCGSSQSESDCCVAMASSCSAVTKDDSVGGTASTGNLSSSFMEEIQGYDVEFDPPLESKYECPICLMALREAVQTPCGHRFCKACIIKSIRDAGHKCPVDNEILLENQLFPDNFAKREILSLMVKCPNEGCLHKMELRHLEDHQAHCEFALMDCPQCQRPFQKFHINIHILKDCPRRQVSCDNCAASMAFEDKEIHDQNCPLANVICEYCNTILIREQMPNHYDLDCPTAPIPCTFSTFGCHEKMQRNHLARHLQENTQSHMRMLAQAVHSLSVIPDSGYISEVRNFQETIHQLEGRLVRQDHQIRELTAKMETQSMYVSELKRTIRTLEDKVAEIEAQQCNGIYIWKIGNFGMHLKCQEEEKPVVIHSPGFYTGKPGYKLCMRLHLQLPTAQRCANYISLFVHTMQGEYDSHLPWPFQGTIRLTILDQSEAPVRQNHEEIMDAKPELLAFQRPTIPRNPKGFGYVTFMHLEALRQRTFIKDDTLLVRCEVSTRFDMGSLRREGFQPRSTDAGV

Variants of: B1
Conditions: with traf6_human TRAF6, Q9Y4K3

Row | Variant | effect of a mutation on the interaction
1 | P455D | disrupting interaction strength
2 | Y460E | decreasing interaction strength
3 | Y460A | disrupting interaction strength
4 | E457A | disrupting interaction strength
